Test results taken from PMC4214742, “Crystal Structure of Human Protein N-Terminal Glutamine Amidohydrolase, an Initial Component of the N-End Rule Pathway” (PLoS ONE, 2014).

Target: the molecule itself
Assay: crystal structure; SAD phasing, 1.5 Å; hanging-drop vapor diffusion at 291 K, 10 mg/ml Se-Met protein, well solution 1% ethylene glycol, 1.8 M ammonium sulfate, 100 mM MES pH 6.0; space group P212121; contact between symmetry-related molecules in the crystal

B1: human protein N-terminal glutamine amidohydrolase isoform 1 (hNtaq1) (enzyme)
chain: not shown
modifications: Se-Met labeled (selenomethionine in place of methionine)
notes: human N-terminal glutamine amidohydrolase isoform 1, encoded by the C8orf32 gene; 205 amino acids (Ser1 to Cys205), initial Met replaced by Ser after TEV cleavage; 202 residues modeled, Lys203, Asn204 and Cys205 disordered; Cloned by Gateway into pVP16 with N-terminal (His)6-MBP and a TEV site; also called human Ntaq1; not shown: His6, N-terminal, cleaved; MBP, N-terminal, cleaved
- binding result: binds
